US20220387586A1 (Hoffmann-La Roche, published 2022)

How the values were obtained:
[1] = target: T1, human Fc tagged human Lag3 extra cellular domain (human, UniProt P18627 29-450, biotinylated in the epitope binning, the SA CAP SPR and the FACS competition assay); test: FACS, inhibition of biotinylated Lag3:Fc binding to MHC-II on A375 cells (competitor MHC-II); antibody 10 µg/ml
T1 construct: In-house fusion; also called huLag3-Fc; biotinylated, huFc-tagged huLag3; not shown: human Fc tag
T1 sequence: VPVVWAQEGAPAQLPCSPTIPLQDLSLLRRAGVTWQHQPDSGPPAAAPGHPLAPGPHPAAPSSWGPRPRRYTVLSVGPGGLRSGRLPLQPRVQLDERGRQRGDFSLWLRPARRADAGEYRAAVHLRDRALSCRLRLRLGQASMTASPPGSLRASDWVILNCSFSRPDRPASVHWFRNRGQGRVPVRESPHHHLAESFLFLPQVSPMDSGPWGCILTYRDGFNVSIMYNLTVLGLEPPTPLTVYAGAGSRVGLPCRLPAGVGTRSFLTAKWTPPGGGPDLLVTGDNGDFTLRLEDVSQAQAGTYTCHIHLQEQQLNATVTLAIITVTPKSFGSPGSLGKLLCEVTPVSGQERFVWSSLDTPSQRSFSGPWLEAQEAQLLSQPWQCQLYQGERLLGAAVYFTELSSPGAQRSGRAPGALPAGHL
Description: This analysis was studied in a FACS competition experiment: A375 cells (ATCC, #CRL-1619) were cultured for 2-3 passages in EM Eagle's medium supplemented with EBSS (PAN, cat.no. #P04-00509), 10% FBS, 2 mM L-Glutamin, 1×NEAA and 1× Sodium Pyruvate. All antibodies, were diluted in FACS buffer to a final concentration of 20 μg/ml in 25 μl (in 96well U-bottom plates). […] A375 cells were washed with PBS and adjusted to 3×10⁶ cells/ml in PBS. 100 μl were seeded per well in a 96well V-bottom plate. Plates were centrifuged and supernatant was removed. […] After this, cells were washed with 200 μl FACS buffer. […] After staining, cells were again washed and then transferred in 150 μl FACS buffer (PBS/2% FBS) to a U-bottom plate and analyzed on a FACS Canto-II using an HTS module.
All antibodies were used at 10 μg/ml final concentration.

biotinylated-Lag3 [2] = target: T2, biotinylated-Lag3 (UniProt P18627 23-450, limits assumed, biotinylated); test: ELISA, inhibition of biotinylated-Lag3 binding to MHC-II on A375 cells (competitor MHC-II); first of two numbers
T2 construct: Probably a human LAG3 ECD construct; also called Lag3 (MHCII/ELISA)
T2 sequence (looked up): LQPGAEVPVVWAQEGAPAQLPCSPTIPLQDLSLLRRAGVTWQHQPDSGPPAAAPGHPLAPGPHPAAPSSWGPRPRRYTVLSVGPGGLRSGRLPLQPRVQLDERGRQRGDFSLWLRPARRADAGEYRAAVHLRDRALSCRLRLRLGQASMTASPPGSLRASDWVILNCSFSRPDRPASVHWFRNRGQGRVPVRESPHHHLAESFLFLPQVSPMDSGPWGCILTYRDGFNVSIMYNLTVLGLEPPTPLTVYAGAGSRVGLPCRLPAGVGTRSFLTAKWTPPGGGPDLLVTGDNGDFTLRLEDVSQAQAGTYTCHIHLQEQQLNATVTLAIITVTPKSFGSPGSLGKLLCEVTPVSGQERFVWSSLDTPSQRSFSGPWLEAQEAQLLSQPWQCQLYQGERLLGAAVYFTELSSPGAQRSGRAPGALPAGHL

biotinylated-Lag3 [3] = target: T2, biotinylated-Lag3; test: ELISA, inhibition of biotinylated-Lag3 binding to MHC-II on A375 cells (competitor MHC-II); second of two numbers
[4] = target: T1, human Fc tagged human Lag3 extra …; test: SPR (Biacore T200), huLag3-Fc captured, antibody Fab fragment as analyte, 25 °C
Description: (§1) Therefore two flow cells of a C1 biosensor chip were prepared in a Biacore T200 by immobilizing neutravidin, diluted to 25 μg/ml in acetate buffer pH 4.5, onto it using the ‘immobilization wizard’. […] Then, CaptureSelect™ Biotin Anti-IgG-Fc (Human) Conjugate was bound to the neutravidin, using a 20 μg/ml dilution in running buffer (HBS-EP+, GE Healthcare).
(§2) The method itself consisted of four commands per cycle. […] Second command: sample injection for 120s followed by a 1200s long dissociation at a flow speed of 30 μl/min. Third and fourth command: regeneration by injecting Glycine-HCl pH 1.5 for 30 seconds.

[5] = target: T1, human Fc tagged human Lag3 extra …; test: SPR (Biacore T200), huLag3-Fc captured, antibody Fab fragment as analyte, 25 °C, 1:1 Langmuir fit; monovalent (first value line); bivalent line is tbd
Description: as §1, §2

[6] = target: T1, human Fc tagged human Lag3 extra …; test: SPR (Biacore T200), huLag3-Fc captured, antibody Fab fragment as analyte, 25 °C, 1:1 Langmuir fit
Description: as §1, §2

hu PD1-ECD [7] = target: T3, hu PD1-ECD (human, UniProt Q15116 25-170); test: SPR; row head 'Affinity KD 37° C.'; first of two numbers; first of the two numbers in the cell, row head 37° C.
T3 construct: SPR analyte; also called human PD1-ECD
T3 sequence (Q15116 25-170 limits assumed): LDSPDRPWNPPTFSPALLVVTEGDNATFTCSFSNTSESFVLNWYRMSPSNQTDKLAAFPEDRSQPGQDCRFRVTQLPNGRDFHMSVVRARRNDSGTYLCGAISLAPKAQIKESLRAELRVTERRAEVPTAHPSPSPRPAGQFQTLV

hu PD1-ECD [8] = target: T3, hu PD1-ECD; test: SPR (Biacore T200), antibody captured by anti-human IgG, hu PD1-ECD as analyte, 25 °C, 1:1 Langmuir fit
Description: Therefore, an anti-human IgG was immobilized by amine coupling to the surface of a (Biacore) CM5 sensor chip. […] The sensor chip surface was regenerated after each analysis cycle. The equilibrium constant and kinetic rate constants were finally gained by fitting the data to a 1:1 langmuir interaction model.
(§3) The samples were injected for 20 seconds with a concentration of 10 nM and bound to the second flow cell.
Finally the double referenced data was fitted to a 1:1 Langmuir interaction model with the Biacore T200 Evaluation Software.

[9] = target: T4, biotinylated PD1-ECD-AviHis (human, UniProt Q15116 25-170, biotinylated); test: ELISA (hu PD1, as described above)
T4 construct: also called huPD1; hu PD1; not shown: Avi-His tag
T4 sequence (Q15116 25-170): as the sequence (Q15116 25-170 limits assumed) above
Description: After washing (3×90 μl/well with PBST-buffer) 25 μl/well goat-anti-human H+L-POD (JIR, JIR109-036-088)/Sheep-anti-mouse-POD (GE Healthcare; NA9310) was added in 1:2000/1:1000 dilution and incubated at RT for 1 h on shaker. After washing (3×90 μl/well with PBST-buffer) 25 μl/well TMB substrate (Roche Catalogue No. 11835033001) was added and incubated until OD 2-3. Measurement took place at 370/492 nm.

[10] = target: T4, biotinylated PD1-ECD-AviHis; test: ligand replacing ELISA; row head 'IC50 PD-L1, 2 [nM]' (ligand not told apart); competing ligand printed only as 'PD-L1, 2'
hu PD1-ECD [11] = target: T3, hu PD1-ECD; test: SPR; row head 'Affinity KD 37° C.'; second of two numbers, equal to the 25 °C value of Table 3; second of the two numbers in the cell; only 37° C. is printed, split not explained
Description: as §3

[12] = target: T5, biotinylated cynoPD1-ECD-Biotin (cynomolgus, UniProt B0LAJ3 25-170, biotinylated; the site and any Avi or His tag are not stated in the passages shown); test: ELISA on cyno PD1; row head 'cynomolgus crossreactivity (EC50 [nm])'
T5 construct: also called cyPD1
T5 sequence (B0LAJ3 entry or part of it limits assumed): as the sequence (Q15116 25-170 limits assumed) above, with D2E, P10A, V19L, T35A, Q75R, T144A counted along it

[13] = target: T6, full-length human PD1 on cells (human, UniProt Q15116 25-288); test: cell ELISA on CHO-K1 cells expressing full-length human PD1
T6 construct: also called CHO-PD1
T6 sequence (Q15116 25-288 limits assumed): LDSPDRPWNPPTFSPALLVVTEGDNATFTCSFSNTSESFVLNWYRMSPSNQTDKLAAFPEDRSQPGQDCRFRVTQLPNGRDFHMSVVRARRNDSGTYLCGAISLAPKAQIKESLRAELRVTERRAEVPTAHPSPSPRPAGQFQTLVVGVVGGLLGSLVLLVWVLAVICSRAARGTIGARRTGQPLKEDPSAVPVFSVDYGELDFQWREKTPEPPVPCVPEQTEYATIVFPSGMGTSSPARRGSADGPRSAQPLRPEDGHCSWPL
Description: (to avoid internalization). After washing carefully (1×90 μl/well PBST) cells were fixed by adding 30 μl/well 0.05% Glutaraldehyde (Sigma, Cat.No: G5882, 25%) diluted in 1×PBS-buffer and incubated for 10 min at RT. After washing (3×90 μl/well PBST) 25 μl/well secondary antibody was added for detection: goat-anti-human H+L-POD (JIR, JIR109-036-088)/Sheep-anti-mouse-POD (GE NA9310) followed by 1h incubation at RT on shaker. After washing (3×90 μl/well PBST) 25 μl/well TMB substrate solution (Roche 11835033001) was added and incubated until OD 1.0-2.0. Plates were measured at 370/492 nm.

[14] = target: T5, biotinylated cynoPD1-ECD-Biotin; test: ELISA on coated cynoPD1-ECD-Biotin
hu PD1-ECD [15] = target: T3, hu PD1-ECD; test: SPR; row head 'Affinity KD 37° C.'; first of two numbers
Description: as §3

[16] = target: T4, biotinylated PD1-ECD-AviHis; test: ELISA on coated biotinylated PD1-ECD-AviHis
hu PD1-ECD [17] = target: T3, hu PD1-ECD; test: SPR; row head 'Affinity KD 37° C.'; second of two numbers, equal to the 25 °C value of Table 3

B1: Reference MDX26H10 (antibody, V domains shown)
VH: QVQLVESGGGVVQPGRSLRLSCAASGFTFSSYGMHWVRQAPGKGLEWVAVIWYDGSNKYYADSVKGRFTISRDNSKNTLYLQMNSLRAEDTAVYYCAREWAVASWDYGMDVWGQGTTVTVSS
VL: not shown
notes: also called MDX-26H10 (26H10); aLAG3(MDX26H10)
For B1, the “% Inhibition” value [1] was 71.7%, the IC50 (biotinylated-Lag3 [2]) was 0.9 nM and the IC50 (biotinylated-Lag3 [3]) was 0.6 nM.

B2: aLAG3(0414) Fab fragment (Fab, V domains shown)
VH: EVQLLESGGGLVQPGGSLRLSCAASGFIFDDYTMNWVRQAPGKGLEWVAVISWDGGGTYYTDSVKGRFTISRDDFKNTLYLQMNSLRAEDTAVYYCAKGLTDTTLYGSDYWGQGTLVTVSS
VL: DIQMTQSPSSLSASVGDRVTITCRASQSISSYLNWYQQKPGKAPKLLIYAASTLQSGVPSRFSGSGSGTDFTLTISSLQPEDFATYYCQQTYSSPLTFGGGTKVEIK
B2 gave a koff [4] of 0.000195 s⁻¹ and a Kd [5] of 0.463 nM.

B3: aLAG3(0416) Fab fragment (Fab, V domains shown)
VH: EVQLVESGGGLVQPGGSLRLACAASGFTFSDYAMSWVRQAPGKGLEWVSGIDNSGYYTYYTDSVKGRFTISRDDVKNTLYLQMNSLRAEDTAVYLCTKTHSGLIVNDAFDIWGQGTMVTVSS
VL: DIQLTQSPSSLSASVGDRVTITCRASQSISSYLNWYQQKPGKAPKLLIYDASSLESGVPSRFSGSGSGTDATLTISSLQPEDFATYYCQQSYSTPLTFGGGTKVEIK
In the case of B3, the koff [4] is reported as 0.000221 s⁻¹ and the Kd [6] is reported as 0.0282 nM.

B4: chimeric PD1-0103 (antibody, human IgG1, V domains shown)
VH: EVILVESGGGLVKPGGSLKLSCAASGFSFSSYTMSWVRQTPEKRLDWVATISGGGRDIYYPDSVKGRFTISRDNAKNTLYLEMSSLMSEDTALYYCVLLTGRVYFALDSWGQGTSVTVSS
VL: KIVLTQSPASLPVSLGQRATISCRASESVDTSDNSFIHWYQQRPGQSPKLLIYRSSTLESGVPARFSGSGSRTDFTLTIDPVEADDVATYYCQQNYDVPWTFGGGTKLEIK
notes: also called chiPD1-0103
Binder B4 has a Kd (hu PD1-ECD [7]) of 2 nM, a Kd (hu PD1-ECD [8]) of 0.8 nM and a koff (hu PD1-ECD [8]) of 0.000307 s⁻¹. It also gave a kon (hu PD1-ECD [8]) of 386000 M⁻¹ s⁻¹, an EC50 [9] of 0.2 nM and an IC50 [10] of 1.35 nM. It also gave a Kd (hu PD1-ECD [11]) of 0.8 nM.

B5: PD1-0103-0314 (antibody, human IgG1, V domains shown)
VH: EVQLLESGGGLVQPGGSLRLSCAASGFSFSSYTMSWVRQAPGKGLEWVATISGGGRDIYYPDSVKGRFTISRDNSKNTLYLQMNSLRAEDTAVYYCVLLTGRVYFALDSWGQGTLVTVSS
VL: EIVLTQSPATLSLSPGERATLSCRASESVDTSDNSFIHWYQQKPGQSPRLLIYRSSTLESGIPARFSGSGSGTDFTLTISSLEPEDFAVYYCQQNYDVPWTFGQGTKVEIKR
notes: Humanized; also called PD1-103-0314; PD-0103-0314
With B5 the Kd (hu PD1-ECD [8]) was 1.5 nM, the koff (hu PD1-ECD [8]) was 0.000279 s⁻¹ and the kon (hu PD1-ECD [8]) was 187000 M⁻¹ s⁻¹. The EC50 [9] was 0.07 nM, the EC50 [12] was 0.05 nM and the EC50 [13] was 7.7 ng/mL. It also gave an EC50 [14] of 8.3 ng/mL, a Kd (hu PD1-ECD [15]) of 1.6 nM and an EC50 [16] of 11 ng/mL. It also gave a Kd (hu PD1-ECD [17]) of 1.5 nM.
